Reference: the supplement of paper PMC10065799, “High-throughput profiling of sequence recognition by tyrosine kinases and SH2 domains using bacterial peptide display” (eLife, 2023)

Tested on: Fer (mouse)
Experiment: phosphorylation enrichment, bacterial display (enrichment ratio); higher = better substrate or ligand; peptides without Tyr show the background
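Also: 11-residue human phosphosite peptides and single-mutation variants displayed on the E. coli surface, counted by deep sequencing, each peptide's frequency after selection divided by its frequency in the unselected input library; frequency after pTyr selection over input frequency; kinase dosed for 20-30% of maximal phosphorylation in three min.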

Row | Sequence | phosphorylation enrichment
1 | MKDLTYSSLCF [ALOX5_Y446_A447S] | 3.84
2 | TMKSRYMELYD [BBS2_Y644] | 0.426
3 | FETVKYFNNER [ABCB7_Y345_YF] | 0.465
4 | PPNSPYMGSSP [KCNT1_Y740_I741M] | 0.612
5 | ETSHNYHKFDS [MATR3_Y243] | 0.372
6 | LQKPMYEVQWK [KIT_Y553] | 0.83
7 | HNLDYYKETTN [FGFR3_Y648_K650E] | 0.766
8 | CPFNLYAEQFS [HGD_Y40_L44F_YF] | 0.923
9 | SVVLPYEPPEV [TP53_Y220_V218L] | 0.746
10 | RFGKVYKGHLF [ROR2_Y488] | 0.585
11 | SRNSKYNAEST [PSEN1_Y315_K311R] | 0.347
12 | ASYGPNTRVQS [FOXL2_Y258_Y258N] | 0.448
13 | SRGHQYQELPR [KCNH2_Y1009_R1007H] | 0.413
14 | NTFEKYWPFFQ [GATM_Y103_YF] | 0.429
15 | QRASDYFSQQM [GBP6_Y333_A331S_YF] | 0.667
16 | DAGTDYVGISR [FREM2_Y2061] | 0.459
17 | LFSGDCFRIQG [DDR2_Y740_Y740C_YF] | 0.468
18 | APTSGYREFVH [IL4R_Y575_Q576R] | 0.485
19 | TEGNEYVFRVA | 0.44
20 | LDFPEYDGVDR [CASQ1_Y43] | 0.719
21 | EYQKKYSDADI [CKAP5_Y1860_K1857Q] | 0.597
22 | EEGESDVCSSD [DCX_Y125_Y125D] | 0.479
23 | GLRSYYETSKM [MAGED2_Y449] | 0.465
24 | RLRVVYPWTQR [HBB_Y36_L33R] | 0.335
25 | YIPFRYPKEFQ [IDS_Y234_H229Y] | 0.425
26 | TGNGYYFRVFS [MYBPC3_Y1136_I1131T] | 0.594
27 | IITDFYVDMKF [MPP4_Y567_V562I_YF] | 0.953
28 | WVYNHYRWIIW [BRCA2_Y2624] | 0.431
29 | FYNSEYGELSE [FLT4_Y1337] | 0.684

Molecular target: Fyn (UniProt P06241)
Sequence (P06241 whole entry, looked up): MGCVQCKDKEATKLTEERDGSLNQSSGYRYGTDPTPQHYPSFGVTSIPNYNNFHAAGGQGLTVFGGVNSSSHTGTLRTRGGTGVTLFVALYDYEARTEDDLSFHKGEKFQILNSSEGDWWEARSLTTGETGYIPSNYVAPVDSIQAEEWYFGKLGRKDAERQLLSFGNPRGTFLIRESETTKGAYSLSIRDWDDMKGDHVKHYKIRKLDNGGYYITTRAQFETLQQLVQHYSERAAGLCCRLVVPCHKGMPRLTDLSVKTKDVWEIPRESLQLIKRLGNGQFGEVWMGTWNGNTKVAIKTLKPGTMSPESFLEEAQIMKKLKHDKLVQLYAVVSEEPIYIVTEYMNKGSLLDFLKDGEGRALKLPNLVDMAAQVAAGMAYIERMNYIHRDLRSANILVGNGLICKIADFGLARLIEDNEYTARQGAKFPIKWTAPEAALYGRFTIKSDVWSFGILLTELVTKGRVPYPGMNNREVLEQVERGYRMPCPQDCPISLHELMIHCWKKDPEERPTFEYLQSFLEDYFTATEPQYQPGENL
Experiment: as above

Row | Sequence | phosphorylation enrichment
30 | MKDLTYSSLCF [ALOX5_Y446_A447S] | 6.62
31 | TMKSRYMELYD [BBS2_Y644] | 0.475
32 | FETVKYFNNER [ABCB7_Y345_YF] | 0.39
33 | PPNSPYMGSSP [KCNT1_Y740_I741M] | 0.546
34 | ETSHNYHKFDS [MATR3_Y243] | 0.401
35 | LQKPMYEVQWK [KIT_Y553] | 0.81
36 | HNLDYYKETTN [FGFR3_Y648_K650E] | 0.597
37 | CPFNLYAEQFS [HGD_Y40_L44F_YF] | 0.834
38 | SVVLPYEPPEV [TP53_Y220_V218L] | 0.456
39 | RFGKVYKGHLF [ROR2_Y488] | 0.717
40 | SRNSKYNAEST [PSEN1_Y315_K311R] | 0.366
41 | ASYGPNTRVQS [FOXL2_Y258_Y258N] | 0.41
42 | SRGHQYQELPR [KCNH2_Y1009_R1007H] | 0.487
43 | NTFEKYWPFFQ [GATM_Y103_YF] | 0.69
44 | QRASDYFSQQM [GBP6_Y333_A331S_YF] | 0.662
45 | DAGTDYVGISR [FREM2_Y2061] | 0.482
46 | LFSGDCFRIQG [DDR2_Y740_Y740C_YF] | 0.472
47 | APTSGYREFVH [IL4R_Y575_Q576R] | 0.422
48 | TEGNEYVFRVA | 0.583
49 | LDFPEYDGVDR [CASQ1_Y43] | 0.75
50 | EYQKKYSDADI [CKAP5_Y1860_K1857Q] | 0.37
51 | EEGESDVCSSD [DCX_Y125_Y125D] | 0.505
52 | GLRSYYETSKM [MAGED2_Y449] | 0.417
53 | RLRVVYPWTQR [HBB_Y36_L33R] | 0.6
54 | YIPFRYPKEFQ [IDS_Y234_H229Y] | 0.644
55 | TGNGYYFRVFS [MYBPC3_Y1136_I1131T] | 0.334
56 | IITDFYVDMKF [MPP4_Y567_V562I_YF] | 0.527
57 | WVYNHYRWIIW [BRCA2_Y2624] | 0.375
58 | FYNSEYGELSE [FLT4_Y1337] | 1.59

Molecular target: FGFR3 (UniProt P22607)
Sequence (P22607 whole entry, looked up): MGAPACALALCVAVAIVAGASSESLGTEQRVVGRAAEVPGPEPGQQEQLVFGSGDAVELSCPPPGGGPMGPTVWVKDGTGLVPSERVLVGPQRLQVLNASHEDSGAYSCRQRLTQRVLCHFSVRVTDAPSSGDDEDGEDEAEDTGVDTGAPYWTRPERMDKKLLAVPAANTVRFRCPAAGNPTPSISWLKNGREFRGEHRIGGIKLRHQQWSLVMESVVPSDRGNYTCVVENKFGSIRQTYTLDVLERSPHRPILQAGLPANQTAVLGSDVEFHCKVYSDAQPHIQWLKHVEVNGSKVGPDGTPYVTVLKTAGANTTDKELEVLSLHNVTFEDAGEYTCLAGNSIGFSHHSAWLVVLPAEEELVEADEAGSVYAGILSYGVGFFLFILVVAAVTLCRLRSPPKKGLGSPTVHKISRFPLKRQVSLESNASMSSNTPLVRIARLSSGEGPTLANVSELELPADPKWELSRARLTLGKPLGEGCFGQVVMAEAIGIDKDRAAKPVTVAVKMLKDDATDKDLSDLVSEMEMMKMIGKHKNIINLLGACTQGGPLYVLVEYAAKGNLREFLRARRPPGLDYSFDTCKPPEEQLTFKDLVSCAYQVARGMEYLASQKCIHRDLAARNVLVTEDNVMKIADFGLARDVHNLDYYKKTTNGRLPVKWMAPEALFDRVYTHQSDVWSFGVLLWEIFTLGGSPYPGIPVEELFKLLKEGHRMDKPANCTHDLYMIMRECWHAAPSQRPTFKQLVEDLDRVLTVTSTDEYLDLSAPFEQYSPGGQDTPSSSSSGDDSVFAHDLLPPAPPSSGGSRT
Experiment: as above

Row | Sequence | phosphorylation enrichment
59 | MKDLTYSSLCF [ALOX5_Y446_A447S] | 1.14
60 | TMKSRYMELYD [BBS2_Y644] | 0.556
61 | FETVKYFNNER [ABCB7_Y345_YF] | 0.606
62 | PPNSPYMGSSP [KCNT1_Y740_I741M] | 0.818
63 | ETSHNYHKFDS [MATR3_Y243] | 0.475
64 | LQKPMYEVQWK [KIT_Y553] | 1.49
65 | HNLDYYKETTN [FGFR3_Y648_K650E] | 2.12
66 | CPFNLYAEQFS [HGD_Y40_L44F_YF] | 0.847
67 | SVVLPYEPPEV [TP53_Y220_V218L] | 0.704
68 | RFGKVYKGHLF [ROR2_Y488] | 0.754
69 | SRNSKYNAEST [PSEN1_Y315_K311R] | 0.376
70 | ASYGPNTRVQS [FOXL2_Y258_Y258N] | 0.407
71 | SRGHQYQELPR [KCNH2_Y1009_R1007H] | 0.464
72 | NTFEKYWPFFQ [GATM_Y103_YF] | 1.08
73 | QRASDYFSQQM [GBP6_Y333_A331S_YF] | 1.39
74 | DAGTDYVGISR [FREM2_Y2061] | 0.621
75 | LFSGDCFRIQG [DDR2_Y740_Y740C_YF] | 0.693
76 | APTSGYREFVH [IL4R_Y575_Q576R] | 0.474
77 | TEGNEYVFRVA | 0.822
78 | LDFPEYDGVDR [CASQ1_Y43] | 1.37
79 | EYQKKYSDADI [CKAP5_Y1860_K1857Q] | 0.589
80 | EEGESDVCSSD [DCX_Y125_Y125D] | 0.544
81 | GLRSYYETSKM [MAGED2_Y449] | 1.13
82 | RLRVVYPWTQR [HBB_Y36_L33R] | 0.568
83 | YIPFRYPKEFQ [IDS_Y234_H229Y] | 0.658
84 | TGNGYYFRVFS [MYBPC3_Y1136_I1131T] | 0.766
85 | IITDFYVDMKF [MPP4_Y567_V562I_YF] | 1.39
86 | WVYNHYRWIIW [BRCA2_Y2624] | 0.702
87 | FYNSEYGELSE [FLT4_Y1337] | 0.932

Tested on: c-Abl (mouse)
Experiment: as above

Row | Sequence | phosphorylation enrichment
88 | MKDLTYSSLCF [ALOX5_Y446_A447S] | 1.53
89 | TMKSRYMELYD [BBS2_Y644] | 0.624
90 | FETVKYFNNER [ABCB7_Y345_YF] | 0.567
91 | PPNSPYMGSSP [KCNT1_Y740_I741M] | 0.782
92 | ETSHNYHKFDS [MATR3_Y243] | 0.61
93 | LQKPMYEVQWK [KIT_Y553] | 1.36
94 | HNLDYYKETTN [FGFR3_Y648_K650E] | 0.788
95 | CPFNLYAEQFS [HGD_Y40_L44F_YF] | 1.16
96 | SVVLPYEPPEV [TP53_Y220_V218L] | 0.945
97 | RFGKVYKGHLF [ROR2_Y488] | 1.69
98 | SRNSKYNAEST [PSEN1_Y315_K311R] | 0.497
99 | ASYGPNTRVQS [FOXL2_Y258_Y258N] | 0.559
100 | SRGHQYQELPR [KCNH2_Y1009_R1007H] | 0.589
101 | NTFEKYWPFFQ [GATM_Y103_YF] | 0.795
102 | QRASDYFSQQM [GBP6_Y333_A331S_YF] | 1.28
103 | DAGTDYVGISR [FREM2_Y2061] | 0.54
104 | LFSGDCFRIQG [DDR2_Y740_Y740C_YF] | 0.84
105 | APTSGYREFVH [IL4R_Y575_Q576R] | 0.508
106 | TEGNEYVFRVA | 0.647
107 | LDFPEYDGVDR [CASQ1_Y43] | 1.48
108 | EYQKKYSDADI [CKAP5_Y1860_K1857Q] | 0.706
109 | EEGESDVCSSD [DCX_Y125_Y125D] | 0.621
110 | GLRSYYETSKM [MAGED2_Y449] | 0.534
111 | RLRVVYPWTQR [HBB_Y36_L33R] | 0.484
112 | YIPFRYPKEFQ [IDS_Y234_H229Y] | 0.464
113 | TGNGYYFRVFS [MYBPC3_Y1136_I1131T] | 0.818
114 | IITDFYVDMKF [MPP4_Y567_V562I_YF] | 0.905
115 | WVYNHYRWIIW [BRCA2_Y2624] | 0.841
116 | FYNSEYGELSE [FLT4_Y1337] | 0.986
